Measured values as given in paper PMC4626798 (Scientific Reports, 2015).
“And” between values parts separate entries of the source, which are not always exact repeats. Equal entries are not always repeated.

B1: Hal3 (full length, obtained from GST-Hal3 by PreScission protease treatment) (natural protein, S. cerevisiae, UniProt P36024 1-562, looked up)
chain: MTAVASTSGKQDADHNQSIECPRFSRGQKEILLDHEDAKGKDSIINSPVSGRQSISPTLSNATTTTTKSIMNATGTSGAVVSNTPEPGLKRVPAVTFSDLKQQQKQDSLTQLKNDSERTKSPNSNPAPVSNSIPGNHAVIPNHTNTSRTTQLSGSPLVNEMKDYDPKKKDSALKIVDTMKPDKIMATSTPISRENNKVTAKAPTSITLRKEDAQDQANNVSGQINVRSTPEETPVKQSVIPSIIPKRENSKNLDPRLPQDDGKLHVLFGATGSLSVFKIKPMIKKLEEIYGRDRISIQVILTQSATQFFEQRYTKKIIKSSEKLNKMSQYESTPATPVTPTPGQCNMAQVVELPPHIQLWTDQDEWDAWKQRTDPVLHIELRRWADILVVAPLTANTLSKIALGLCDNLLTSVIRAWNPSYPILLAPSMVSSTFNSMMTKKQLQTIKEEMSWVTVFKPSEKVMDINGDIGLGGMMDWNEIVNKIVMKLGGYPKNNEEEDDDEDEEEDDDEEEDTEDKNENNNDDDDDDDDDDDDDDDDDDDDDDDDEDEDEAETPGIIDKHQ
notes: Hal3 (Sis2), S. cerevisiae, the entire protein, expressed from pGEX6P1-Hal3; also called Sis2; recombinant Hal3; source: E. coli BL21 (DE3), GST-Hal3 purified and digested with PreScission protease
B2: Hal3 (untagged, entire, co-expressed from pETDuet-1) (natural protein, S. cerevisiae, UniProt P36024 1-562, looked up)
chain: B1 chain
notes: Hal3 (Sis2), S. cerevisiae, the entire Hal3, second MCS of pETDuet-1; also called Sis2; untagged version of Hal3; source: E. coli BL21 (DE3), co-expressed with 6 × His-Ppz1^Cter from pETDuet-1; purified as the complex (Ni2+ IMAC, SEC)
B3: Cab3^PD (untagged) (domain or fragment, S. cerevisiae, UniProt P36076 305-508, looked up)
chain: DDKKFHILIGATGSVATIKVPLIIDKLFKIYGPEKISIQLIVTKPAEHFLKGLKMSTHVKIWREEDAWVFDAVNKNDTSLSLNLILHHELRKWADIFLIAPLSANTLAKLANGICNNLLTSVMRDWSPLTPVLIAPAMNTFMYINPMTKKHLTSLVQDYPFIQVLKPVEKVLICGDIGMGGMREWTDIVEIVRRRINEIRKARD
notes: Cab3 (previously Ykl088w), S. cerevisiae, PPCDC domain (PD), residues 305–508; Expected MW 23.3 kDa; could not be made on its own; also called PPCDC domain of Cab3; Ykl088w PD; source: E. coli BL21 (DE3), co-expressed from the second MCS of pETDuet-1 with 6 × His-Hal3^PD and/or 6 × His-Vhs3^PD; co-purified (Ni2+ IMAC)
B4: 6 × His-Hal3^PD (domain or fragment, S. cerevisiae, UniProt P36024 256-495, looked up)
chain: RLPQDDGKLHVLFGATGSLSVFKIKPMIKKLEEIYGRDRISIQVILTQSATQFFEQRYTKKIIKSSEKLNKMSQYESTPATPVTPTPGQCNMAQVVELPPHIQLWTDQDEWDAWKQRTDPVLHIELRRWADILVVAPLTANTLSKIALGLCDNLLTSVIRAWNPSYPILLAPSMVSSTFNSMMTKKQLQTIKEEMSWVTVFKPSEKVMDINGDIGLGGMMDWNEIVNKIVMKLGGYPKNN
notes: Hal3 (Sis2), S. cerevisiae, PPCDC domain (PD); expected MW with tag 29.1 kDa; also called PPCDC domain of Hal3; source: E. coli BL21 (DE3), purified (Ni2+ IMAC); alone from pET28 or co-expressed with Cab3^PD (pETDuet-1); not shown: His6, N-terminal, kept
B5: 6 × His-Vhs3^PD (domain or fragment, S. cerevisiae, UniProt Q08438 288-577, looked up)
chain: DDGKLHVLFGATGSLSVFKLKHMIRKLEEIYGRDKICIQVILTNSATKFFAMKYMRKNKKQHNSIDTSFNSTNSNAGNITGNKKKVASLEKFSIQKTSSNSAASQTNNKQEEEKQMASTTGFPSTLGGSRTYSNSSNVVSQHPQIELPAHIQFWTDQDEWDVWRQRTDPVLHIELRRWADILVVAPLTANTLAKIALGLCDNLLTSVIRAWNPTFPIFLAPSMGSGTFNSIMTKKHFRIIQEEMPWVTVFKPSEKVMGINGDIGLSGMMDANEIVGKIVVKLGGYPDVSA
notes: Vhs3, S. cerevisiae, PPCDC domain (PD), residues 288–577; Expected MW with tag 34.5 kDa; also called PPCDC domain of Vhs3; source: E. coli BL21 (DE3), purified (Ni2+ IMAC); alone from pET28a or co-expressed with Cab3^PD (pETDuet-1); not shown: His6, N-terminal, kept

Legend:
[1] = molecular target: T1, GST-Ppz1^Cter (S. cerevisiae, UniProt P26570 345-692); assay: pull-down; GST-Ppz1^Cter (~6 μg) bound to glutathione agarose beads, incubated with increasing amounts of Hal3 (0.5-fold to 6-fold excess) for 1 h at 24 °C; washed with 50 mM Tris-HCl pH 7.5, 150 mM NaCl, 10% glycerol, 2 mM DTT; SDS-PAGE, Coomassie, densitometry; conditions: both partners purified
T1 construct: Ser/Thr protein phosphatase Ppz1, S. cerevisiae, carboxyl terminal domain, Ppz1 (Δ1–344), expressed from pGEX6P1-Ppz1^Cter; also called Ppz1 (Δ1–344); Ppz1 carboxyl terminal domain
T1 sequence (looked up): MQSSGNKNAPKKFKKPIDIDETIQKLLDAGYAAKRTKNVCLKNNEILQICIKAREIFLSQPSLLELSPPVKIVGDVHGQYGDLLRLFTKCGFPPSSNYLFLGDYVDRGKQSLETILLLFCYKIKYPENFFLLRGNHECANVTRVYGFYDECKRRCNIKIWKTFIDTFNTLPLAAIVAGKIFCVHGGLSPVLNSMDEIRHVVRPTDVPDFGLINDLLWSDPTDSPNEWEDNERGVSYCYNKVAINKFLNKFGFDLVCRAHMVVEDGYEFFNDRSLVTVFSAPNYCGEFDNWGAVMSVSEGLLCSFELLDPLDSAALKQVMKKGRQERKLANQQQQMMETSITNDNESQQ

[2] = molecular target: T2, 6 × His-Ppz1^Cter (S. cerevisiae, UniProt P26570 345-692); assay: SEC; IMAC-purified Ppz1^Cter–Hal3 complex on Superdex 200 HR 10/30, 50 mM Tris-HCl pH 7.5, 270 mM NaCl, 2 mM DTT, 2 mM EDTA; fractions analysed by SDS-PAGE and densitometry; conditions: both partners purified
T2 construct: Ser/Thr protein phosphatase Ppz1, S. cerevisiae, carboxyl terminal domain (Ppz1^Cter, Δ1–344), first MCS of pETDuet-1; also called N-terminally 6 × His-tagged version of Ppz1^Cter; source: E. coli BL21 (DE3), co-expressed with Hal3 from pETDuet-1; purified as the complex (Ni2+ IMAC, SEC); not shown: His6, N-terminal, kept
T2 sequence (looked up): T1 sequence (looked up)

[3] = molecular target: B4; assay: co-purification by Ni2+ IMAC after co-expression; untagged Cab3^PD co-expressed in E. coli with 6 × His-tagged Hal3^PD and/or Vhs3^PD (binary and ternary mixtures); Ni2+ IMAC, SDS-PAGE and densitometry; conditions: partners not purified
[4] = molecular target: B5; assay: as above; conditions: partners not purified
[5] = molecular target: the molecule itself; assay: SEC; purified PD proteins and co-purified mixtures on Superose 12, 50 mM phosphate pH 7.0, 150 mM NaCl, 0.4 mL/min
[6] = molecular target: the molecule itself; assay: cross-linking; purified PD protein treated with disuccinimydyl suberate (DSS) at 37 °C (15 min Hal3^PD, 40 min Vhs3^PD), SDS-PAGE on 8% gels

Q: How did the “maximal ratio of bound Hal3 to GST-Ppz1^Cter” value [1] turn out when B1 was run?
A: ~0.5

Q: How did the “stoichiometry N” value [2] turn out when B2 was run?
A: ~1

Q: B3 was tested. Which “ratio of Hal3^PD to Cab3^PD in the co-purified binary mixture” value [3] did it give?
A: ≥ 2 fold

Q: And the “ratio of Hal3^PD to Cab3^PD in the co-purified ternary mixture” value [3]?
A: ~2

Q: What about the “ratio of Vhs3^PD to Cab3^PD in the co-purified binary mixture” value [4] of the same binder?
A: ≥ 2 fold

Q: What about the “ratio of Vhs3^PD to Cab3^PD in the co-purified ternary mixture” value [4] of the same binder?
A: ~1

Q: Which results are given for B4?
A: stoichiometry N [5]: 6 and 12; stoichiometry N [6]: 3

Q: B5 was tested. Which “stoichiometry N” value [6] did it give?
A: 3
